This is an account of results in PMC7949104.

The test concerns the target E5 C77S mutant. In words: SEC; analytical gel filtration, Superdex 75 10/300 GL, 0.5 ml/min, 50 mM phosphate buffer with 150 mM NaCl, in the presence of a reducing agent; mass from protein standards.

In the case of E5 C77S mutant (enzyme), the stoichiometry N (in general, the number of molecules, sites or subunits per partner or assembly) is 6.
